From patent US20050100540A1, “Platelet-activating factor acetylhydrolase” (priority 1993, published 2005)

Assays:
[1] = Plasma PAF-AH activity in rats of the NEC experiments; assay type: in vivo, rat
Method: The plasma PAF-AH activities were also determined in the rats utilized in the experiment described above. PAF-AH activity was determined as follows. Prior to the tail vein injection, blood samples were obtained. Subsequently blood samples were obtained from the vena cava just prior to the injection of PAF and at the time of sacrifice. Approximately 50 μl of blood was collected in heparinized capillaries. The plasma was obtained following centrifugation (980×g for 5 minutes). The enzyme was assayed as previously described by Yasuda and Johnston, Endocrinology, 130:708-716 (1992).

[2] = system: zymosan A-induced foot edema; experiment: Zymosan A-induced rat foot edema; assay type: in vivo; conditions: 2000 U IV, foot volume after 2 hours
Method: Six to eight-week-old female Long Evans rats (Charles River, Wilmington, Mass.), weighing 180-200 grams, were used for all experiments. Prior to experimental manipulations, animals were anesthetized with a mixture of the anesthetics Ketaset (Fort Dodge laboratories, Fort Dodge, Iowa), Rompun (Miles, Shawnee Mission, Kans.), and Ace Promazine (Aveco, Fort Dodge, Iowa) administered subcutaneously at approximately 2.5 mg Ketaset, 1.6 mg Rompun, 0.2 mg Ace Promazine per animal per dose. Edema was induced in the foot by administration of either PAF or zymosan as follows. […] Animals received 50 μl PAF (final dose of 0.96 nmoles) subcutaneously between the hind foot pads, and edema was assessed after 1 hour and again after 2 hours in some experiments. […] Animals received 50 μl of zymosan (final dose of 500 μg) subcutaneously between the hind foot pads and edema was assessed after 2 hours.
Edema was quantitated by measuring the foot volume immediately prior to administration of PAF or zymosan and at indicated time point post-challenge with PAF or zymosan. Edema is expressed as the increase in foot volume in milliliters. […]
Rats (N=4 per group) were pretreated IV with either PAF-AH (2000 U in 300 μl carrier) or carrier alone. Fifteen minutes after pretreatment, groups received either PAF or zymosan A, and foot volume was assessed after 1 and 2 hours, respectively.

[3] = system: low and high density lipoproteins; experiment: Association with lipoproteins on incubation with DFP-treated human plasma; assay type: binding; conditions: human plasma previously treated with DFP
Text: An unusual feature of the native plasma PAF acetylhydrolase is that it is tightly associated with lipoproteins in circulation, and its catalytic efficiency is influenced by the lipoprotein environment. […] PAF-AH protects low density lipoproteins from modification under oxidizing conditions in vitro and may have such a role in vivo. Administration of PAF-AH is thus indicated for the suppression of the oxidation of lipoproteins in atherosclerotic plaques as well as to resolve inflammation.

PAF mediated lung injury = experiment: Guinea pig model of acute respiratory distress syndrome (ARDS), BAL protein; assay type: in vivo; conditions: 2000 units 15 minutes before 400 ng/kg PAF infusion
Method: Base on the above observations, an ARDS model in guinea pigs % as developed. A cannula is placed into the jugular vein of anaesthetized male Hartly guinea pigs (approximately 350-400 grams) and PAF diluted in a 500 μl volume of phosphate buffered saline with 0.25% bovine serum albumin as a carrier (PBS-BSA) is infused over a 15 minute period of time at a total dosage ranging from 100-400 ng/kg. At various intervals following PAF infusion, animals are sacrificed and lung tissue is collected. In guinea pigs infused with PAF, dose dependent lung damage and inflammation is clearly evident by 15 minutes and continues to be present at 60 minutes. Neutrophils and red blood cells are present in the alveolar spaces of PAF treated guinea pigs but absent in control or sham infused animals. Evidence of epithelial cell damage is also evident and reminiscent of hyaline membrane formation in human ARDS patients.
Groups of guinea pigs were pretreated with either PAF-AH (2000 units in 500 μl) or 500 μl of the PAF-AH buffer only. Fifteen minutes later these guinea pigs were infused with 400 ng/kg PAF in a 500 μl volume, infused over a 15 minute period. In addition, a sham group of guinea pigs was infused with 500 μl of PBS-BSA. […] To determine protein concentration in the BAL, samples were diluted 1:10 in saline and the OD 280 was determined.

[4] = 2¼ hours after injection of 25,500 units

B1: PAF-AH: Recombinant human plasma platelet-activating factor acetylhydrolase (beginning at Ile42) expressed in E. coli from construct pUC trp AH (protein)
chain: IQVLMAAASFGQTKIPRGNGPYSVGCTDLMFDHTNKGTFLRLYYPSQDNDRLDTLWIPNKEYFWGLSKFLGTHWLMGNILRLLFGSMTTPANWNSPLRPGEKYPLVVFSHGLGAFRTLYSAIGIDLASHGFIVAAVEHRDRSASATYYFKDQSAAEIGDKSWLYLRTLKQEEETHIRNEQVRQRAKECSQALSLILDIDHGKPVKNALDLKFDMEQLKDSIDREKIAVIGHSFGGATVIQTLSEDQRFRCGIALDAWMFPLGDEVYSRIPQPLFFINSEYFQYPANIIKMKKCYSPDKERKMITIRGSVHQNFADFTFATGKIIGHMLKLKGDIDSNVAIDLSNKASLAFLQKHLGLHKDFDQWDCLIEGDDENLIPGTNINTTNQHIMLQNSSGIEKYN
Plasma PAF-AH activity at time of sacrifice, Group 2 [1, 4]: 1771±308
Plasma PAF-AH activity at time of sacrifice, Group 4 [1, 4]: 1939±478
Plasma PAF-AH activity at time of sacrifice, groups 2 and 4 [1, 4]: 1855±257 units
Plasma PAF-AH activity after 15 minutes ([1]; 2040 units IV): 363 units per ml of plasma
Plasma PAF-AH activity after 15 minutes, group 2 ([1]; 25,500 units IV, 1 unit equals 1 nmoles×min^−1×ml^−1 plasma, no PAF): 2249±341 units
Plasma PAF-AH activity after 15 minutes, group 4 ([1]; 25,500 units IV, PAF group): 2494±623 units
Resultant plasma enzyme activity ([1]; less than 1,020 total units IV): ≤ 160
Effect on zymosan induced edema [2]: failed to block zymosan induced edema
Association with lipoproteins [3]: associated with low and high density lipoproteins
BAL fluid protein concentration (PAF mediated lung injury): 1.13 ± 0.25 mg/mL
